Results reported in US20240092867A1 (UNIVERSITY OF CHICAGO, published 2024).

B1: TGF-β3 (ligand, UniProt P10600 301-412, looked up)
chain: ALDTNYCFRNLEENCCVRPLYIDFRQDLGWKWVHEPKGYYANFCSGPCPYLRSADTTHSTVLGLYNTLNPEASASPCCVPQDLEPLTILYYVGRTPKVEQLSNMVVKSCKCS
notes: mature; Purchased in mature form
B2: fibroblast growth factor (FGF)-7 (ligand, UniProt P21781 32-194, looked up)
chain: CNDMTPEQMATNVNCSSPERHTRSYDYMEGGDIRVRRLFCRTQWYLRIDKRGKVKGTQEMKNNYNIMEIRTVAVGIVAIKGVESEFYLAMNKEGKLYAKKECNEDCNFKELILENHYNTYASAKWTHNGGEMFVALNQKGIPVRGKKTKKEQKTAHFLPMAIT
notes: as for B1
B3: C-X-C motif ligand (CXCL)-11 (ligand, UniProt O14625 22-94, looked up)
chain: FPMFKRGRCLCIGPGVKAVKVADIEKASIMYPSNNCDKIEVIITLKENKGQRCLNPKSKQARLIIKKVERKNF
notes: as for B1
B4: bone morphogenetic protein (BMP)-2 (ligand, UniProt P12643 283-396, looked up)
chain: QAKHKQRKRLKSSCKRHPLYVDFSDVGWNDWIVAPPGYHAFYCHGECPFPLADHLNSTNHAIVQTLVNSVNSKIPKACCVPTELSAISMLYLDENEKVVLKNYQDMVVEGCGCR
notes: mature
B5: epidermal growth factor (EGF) (ligand, UniProt P01133 971-1023, looked up)
chain: NSDSECPLSHDGYCLHDGVCMYIEALDKYACNCVVGYIGERCQYRDLKWWELR
notes: as for B1
B6: neurotrophin (NT)-3 (ligand, UniProt P20783 139-257, looked up)
chain: YAEHKSHRGEYSVCDSESLWVTDKSSAIDIRGHQVTVLGEIKTGNSPVKQYFYETRCKEARPVKNGCRGIDDKHWNSQCKTSQTYVRALTSENNKLVGWRWIRIDTSCVCALSRKIGRT
notes: as for B1
B7: fibroblast growth factor (FGF)-18 (ligand, UniProt O76093 28-207, looked up)
chain: EENVDFRIHVENQTRARDDVSRKQLRLYQLYSRTSGKHIQVLGRRISARGEDGDKYAQLLVETDTFGSQVRIKGKETEFYLCMNRKGKLVGKPDGTSKECVFIEKVLENNYTALMSAKYSGWYVGFTKKGRPRKGPKTRENQQDVHFMKRYPKGQPELQKPFKYTTVTKRSRRIRPTHPA
notes: as for B1
B8: bone morphogenetic protein (BMP)-3 (ligand, UniProt P12645 363-472, looked up)
chain: QWIEPRNCARRYLKVDFADIGWSEWIISPKSFDAYYCSGACQFPMPKSLKPSNHATIQSIVRAVGVVPGIPEPCCVPEKMSSLSILFFDENKNVVLKVYPNMTVESCACR
notes: as for B1
B9: brain-derived neurotrophic factor (BDNF) (ligand, UniProt P23560 129-247, looked up)
chain: HSDPARRGELSVCDSISEWVTAADKKTAVDMSGGTVTVLEKVPVSKGQLKQYFYETKCNPMGYTKEGCRGIDKRHWNSQCRTTQSYVRALTMDSKKRIGWRFIRIDTSCVCTLTIKRGR
notes: as for B1
B10: fibroblast growth factor (FGF)-10 (ligand, UniProt O15520 38-208, looked up)
chain: QALGQDMVSPEATNSSSSSFSSPSSAGRHVRSYNHLQGDVRWRKLFSFTKYFLKIEKNGKVSGTKKENCPYSILEITSVEIGVVAVKAINSNYYLAMNKKGKLYGSKEFNNDCKLKERIEENGYNTYASFNWQHNGRQMYVALNGKGAPRRGQKTRRKNTSAHFLPMVVHS
notes: as for B1

Target: T1, fibroblast growth factor (FGF)-2 (human, UniProt P09038 143-288)
T1 construct: mature; Purchased in mature form
T1 sequence (P09038 143-288): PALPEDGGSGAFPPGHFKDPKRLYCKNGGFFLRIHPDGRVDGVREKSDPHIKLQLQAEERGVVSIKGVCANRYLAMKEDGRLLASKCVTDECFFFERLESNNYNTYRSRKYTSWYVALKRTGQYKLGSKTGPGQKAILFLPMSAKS
Experiment: ELISA; peptide coated at 10 µg/mL, 1 µg/mL FGF-2 in solution, bound GF detected with antibody [panel FGF-2]
Method: (§1) FIG. 9. […] Affinity of GFs against chemically synthesized peptides that are scrambled (Scr) the sequence of α3₃₀₄₃₋₃₀₆₂. ELISA plates were coated with 10 μg/mL laminin peptide and further incubated with VEGF-A165, PlGF-2, PDGF-BB, or FGF-2. Concentrations were 1 μg/mL for GFs. Bound GF was detected with a specific antibody for each GF (n=4, mean±SEM). Statistical analyses were done using one-way ANOVA. *p<0.05, **p<0.01. Sequence of the peptides are described in Table 2.
(§2) ELISA tests were performed as described above. […] 1 μg/mL of BSA served as non-binding protein control. After blocking with 2% BSA PBS-0.05% Tween 20 (PBS-T) solution, 1 μg/mL of the recombinant human proteins (VEGF-A121, VEGF-A165, PlGF-1, PlGF-2, PDGF-BB or FGF-2) or 10 μg/mL of biotinylated heparin (Sigma-Aldrich) were added. Bound GF was detected with biotinylated antibodies for human VEGF, PlGF, PDGF-BB, or FGF-2 (R&D Systems). The antibodies were detected by streptavidin-HRP (R&D Systems).

Row | Binder | binding result
1 | RKTDALELVFLKKGGIGSKKCNDKR (Scrambled peptide) [α3 3043-3067 Scr2] | binds
2 | CRKKKRKKKALLLGIGDFNSEVTDG (Scrambled peptide) [α3 3043-3067 Scr3] | binds
3 | RLVKALKTDKFLGRIGSEKCNDKGK (Scrambled peptide) [α3 3043-3067 Scr1] | binds
4 | KKRKLVALTDFLGICGSENDGRKKK (Scrambled peptide) [α3 3043-3067 Scr4] | binds
5 | LVRAKLTDKFLGKRIGSKECNKDKG (Scrambled peptide) [α3 3043-3067 Scr5] | binds
6 | ALLLGIGRDFNKKKRKKKSEVTDGC (Scrambled peptide) [α3 3043-3067 Scr6] | binds

Target: T2, human plasma-derived vWF (human, UniProt P04275 764-2813)
T2 construct: mature; also called plasma-derived purified vWF; von Willebrand factor
Experiment: ELISA, GF coated 50 nM, vWF 1 µg/mL
Method: ELISA tests were performed as previously reported1. In brief, ELISA plates (med-binding, Greiner Bio-One) were coated with 50 nM GFs at 37° C. for 2 hrs. […] Then, HRP conjugated goat anti-rabbit antibody (Jackson ImmunoResearch) was added. After 60 min of incubation, 50 μL TMB substrate (Sigma-Aldrich) was added. The reaction was stopped by adding 25 μL of 2N H2SO4. Subsequently, the absorbance at 450 nm was measured and subtracted the absorbance at 570 nm.

Row | Binder | binding result
7 | B1 | no binding
8 | B2 | binds
9 | B3 | binds
10 | B4 | binds
11 | B5 | no binding
12 | B6 | binds
13 | B7 | binds

Target: T3, platelet-derived growth factor (PDGF)-BB (human, UniProt P01127 82-190)
T3 construct: mature; Purchased in mature form
T3 sequence (P01127 82-190): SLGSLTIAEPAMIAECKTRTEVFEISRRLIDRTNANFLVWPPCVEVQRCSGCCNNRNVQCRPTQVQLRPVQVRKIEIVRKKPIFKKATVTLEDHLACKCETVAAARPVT
Experiment: ELISA; peptide coated at 10 µg/mL, 1 µg/mL PDGF-BB in solution, bound GF detected with antibody [panel PDGF-BB]
Method: as §1, §2

Row | Binder | binding result
14 | RKTDALELVFLKKGGIGSKKCNDKR (Scrambled peptide) [α3 3043-3067 Scr2] | binds
15 | CRKKKRKKKALLLGIGDFNSEVTDG (Scrambled peptide) [α3 3043-3067 Scr3] | binds
16 | RLVKALKTDKFLGRIGSEKCNDKGK (Scrambled peptide) [α3 3043-3067 Scr1] | binds
17 | KKRKLVALTDFLGICGSENDGRKKK (Scrambled peptide) [α3 3043-3067 Scr4] | binds
18 | LVRAKLTDKFLGKRIGSKECNKDKG (Scrambled peptide) [α3 3043-3067 Scr5] | binds
19 | ALLLGIGRDFNKKKRKKKSEVTDGC (Scrambled peptide) [α3 3043-3067 Scr6] | binds

Target: T4, laminin-511 (human, UniProt O15230 36-3695; P07942 22-1786; P11047 34-1609)
T4 construct: Full-length recombinant human laminin isoform (BioLamina); chains read from the isoform name
Experiment: ELISA, GF coated, laminin 10 nM
Method: (§3) ELISA tests were performed as previously reported. In brief, ELISA plates (med-binding, Greiner Bio-One) were coated with 50 nM GFs at 37° C. for more than 2 hrs. […] Bound laminin was detected with rabbit anti-human laminin γ1 chain antibody (1:1000 dilution, Assay biotech) or rabbit anti-human laminin α3 chain antibody (1:1000 dilution, Assay biotech). After incubation with biotinylated anti-rabbit antibody for 60 min at room temperature (RT), HRP conjugated streptavidin (Jackson ImmunoResearch) was added. After 60 min of incubation at RT, 50 μL TMB substrate (Sigma-Aldrich) was added. The reactions were stopped by adding 25 μL of 2 N H₂SO₄. Subsequently, the absorbance at 450 nm was measured with a reference of 570 nm.

Row | Binder | binding result
20 | B2 | binds
21 | B8 | binds
22 | B9 | binds
23 | B3 | no binding (tested: A450 0.1)
24 | B10 | binds
25 | B4 | binds
26 | B6 | binds
27 | B7 | binds

Target: T5, laminin-211 (human, UniProt P24043 23-3122; P07942 22-1786; P11047 34-1609)
T5 construct: Full-length recombinant human laminin isoform (BioLamina); chains read from the isoform name
Experiment: ELISA, GF coated, laminin 10 nM
Method: as §3

Row | Binder | binding result
28 | B2 | binds
29 | B8 | binds
30 | B9 | binds
31 | B3 | no binding (tested: A450 0.1)
32 | B10 | binds
33 | B4 | binds
34 | B6 | binds
35 | B7 | binds

Target: T6, laminin-521 (human, UniProt O15230 36-3695; P55268 33-1798; P11047 34-1609)
T6 construct: Full-length recombinant human laminin isoform (BioLamina); chains read from the isoform name
Experiment: ELISA, GF coated, laminin 10 nM
Method: as §3

Row | Binder | binding result
36 | B2 | binds
37 | B8 | binds
38 | B9 | binds
39 | B3 | no binding (tested: A450 0.1)
40 | B10 | binds
41 | B4 | binds
42 | B6 | binds
43 | B7 | binds

Target: T7, laminin-421 (human, UniProt Q16363 25-1823; P55268 33-1798; P11047 34-1609)
T7 construct: Full-length recombinant human laminin isoform (BioLamina); chains read from the isoform name
Experiment: ELISA, GF coated, laminin 10 nM
Method: as §3

Row | Binder | binding result
44 | B2 | binds
45 | B8 | binds
46 | B9 | binds
47 | B3 | no binding (tested: A450 0.1)
48 | B10 | binds
49 | B4 | binds
50 | B6 | binds
51 | B7 | binds

Target: T8, laminin-111 (human, UniProt P25391 18-3075; P07942 22-1786; P11047 34-1609)
T8 construct: Full-length recombinant human laminin isoform (BioLamina); Chain composition is read from the isoform name
Experiment: ELISA, GF coated, laminin 10 nM
Method: as §3

Row | Binder | binding result
52 | B2 | binds
53 | B8 | binds
54 | B9 | binds
55 | B3 | no binding (tested: A450 0.1)
56 | B10 | binds
57 | B4 | binds
58 | B6 | binds
59 | B7 | binds

Target: T9, laminin-411 (human, UniProt Q16363 25-1823; P07942 22-1786; P11047 34-1609)
T9 construct: Full-length recombinant human laminin isoform (BioLamina); chains read from the isoform name
Experiment: ELISA, GF coated, laminin 10 nM
Method: as §3

Row | Binder | binding result
60 | B2 | binds
61 | B8 | binds
62 | B9 | binds
63 | B3 | no binding (tested: A450 0.1)
64 | B10 | binds
65 | B4 | binds
66 | B6 | binds
67 | B7 | binds

Target: T10, vascular endothelial growth factor (VEGF)-A165 (human, UniProt P15692-4 27-191)
T10 construct: mature; Purchased in mature form, not glycosylated
T10 sequence (P15692 other isoform, or with tags, fused parts or gaps limits assumed): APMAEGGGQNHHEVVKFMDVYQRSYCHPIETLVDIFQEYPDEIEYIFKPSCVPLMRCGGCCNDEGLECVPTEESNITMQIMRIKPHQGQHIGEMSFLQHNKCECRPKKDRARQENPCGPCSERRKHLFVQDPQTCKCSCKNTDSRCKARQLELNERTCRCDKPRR
Experiment: ELISA; peptide coated at 10 µg/mL, 1 µg/mL VEGF-A165 in solution, bound GF detected with antibody [panel VEGF-A165]
Method: as §1, §2

Row | Binder | binding result
68 | RKTDALELVFLKKGGIGSKKCNDKR (Scrambled peptide) [α3 3043-3067 Scr2] | binds
69 | CRKKKRKKKALLLGIGDFNSEVTDG (Scrambled peptide) [α3 3043-3067 Scr3] | binds
70 | RLVKALKTDKFLGRIGSEKCNDKGK (Scrambled peptide) [α3 3043-3067 Scr1] | binds
71 | KKRKLVALTDFLGICGSENDGRKKK (Scrambled peptide) [α3 3043-3067 Scr4] | binds
72 | LVRAKLTDKFLGKRIGSKECNKDKG (Scrambled peptide) [α3 3043-3067 Scr5] | binds
73 | ALLLGIGRDFNKKKRKKKSEVTDGC (Scrambled peptide) [α3 3043-3067 Scr6] | binds

Target: T11, placental growth factor (PlGF)-2 (human, UniProt P49763-3 19-170)
T11 construct: mature; Purchased in mature form
T11 sequence (looked up): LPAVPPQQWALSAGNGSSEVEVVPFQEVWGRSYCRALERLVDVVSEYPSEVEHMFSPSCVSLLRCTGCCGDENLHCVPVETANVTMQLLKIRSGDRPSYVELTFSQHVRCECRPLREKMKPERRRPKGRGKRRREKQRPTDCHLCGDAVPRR
Experiment: ELISA; peptide coated at 10 µg/mL, 1 µg/mL PlGF-2 in solution, bound GF detected with antibody [panel PlGF-2]
Method: as §1, §2

Row | Binder | binding result
74 | RKTDALELVFLKKGGIGSKKCNDKR (Scrambled peptide) [α3 3043-3067 Scr2] | binds
75 | CRKKKRKKKALLLGIGDFNSEVTDG (Scrambled peptide) [α3 3043-3067 Scr3] | binds
76 | RLVKALKTDKFLGRIGSEKCNDKGK (Scrambled peptide) [α3 3043-3067 Scr1] | binds
77 | KKRKLVALTDFLGICGSENDGRKKK (Scrambled peptide) [α3 3043-3067 Scr4] | binds
78 | LVRAKLTDKFLGKRIGSKECNKDKG (Scrambled peptide) [α3 3043-3067 Scr5] | binds
79 | ALLLGIGRDFNKKKRKKKSEVTDGC (Scrambled peptide) [α3 3043-3067 Scr6] | binds
